Experiment [1] deals with T1, HuRatTF, human-rat hybrid TF antigen (human-rat hybrid).
T1 construct: also called HuRatTF protein; human-rat hybrid TF protein
T1 chain: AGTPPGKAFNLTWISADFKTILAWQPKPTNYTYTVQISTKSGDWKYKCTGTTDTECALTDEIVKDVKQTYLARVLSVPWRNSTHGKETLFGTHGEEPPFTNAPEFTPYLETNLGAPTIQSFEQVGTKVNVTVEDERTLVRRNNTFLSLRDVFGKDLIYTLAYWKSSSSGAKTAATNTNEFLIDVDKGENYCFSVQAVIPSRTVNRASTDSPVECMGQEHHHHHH
Kind of experiment: ELISA, HuRatTF coated, antibody titrated.

Experiment [2] addresses T2, human TF ECD-His (hTF-his) (human, UniProt P13726 33-251).
T2 construct: also called bio-hTF-his; human TF-His protein
Kind of experiment: SPR Biacore T200, antibody on Protein A chip, TF-His as analyte, 1:1 model.

Experiment [3] deals with T3, cyno TF ECD-His (cTF-his) (monkey (cyno)).
T3 construct: also called bio-cTF-his; monkey TF-His protein
T3 chain: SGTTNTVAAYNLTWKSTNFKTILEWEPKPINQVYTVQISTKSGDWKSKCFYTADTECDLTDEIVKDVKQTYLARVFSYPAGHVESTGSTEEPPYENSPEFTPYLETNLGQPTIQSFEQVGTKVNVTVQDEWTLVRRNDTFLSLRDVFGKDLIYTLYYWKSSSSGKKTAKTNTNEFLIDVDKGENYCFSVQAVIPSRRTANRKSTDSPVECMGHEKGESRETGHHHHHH
The experiment is described as above.

Experiment [4] deals with T2, human TF ECD-His (hTF-his). Kind of experiment: ELISA, antibody captured by anti-human IgG, biotinylated TF-his titrated.
The target in experiment [5] is T3, cyno TF ECD-His (cTF-his). The description is as above.
Experiment [6] addresses T4, human tissue factor (TF) on MDA-MB-231, NCI-H358 and HCT116 cells (human, UniProt P13726 33-295). As to the kind of experiment: cell-based or functional assay.
For experiment [7], the target named is T4, human tissue factor (TF) on MDA-MB-231, …. As to the kind of experiment: flow cytometry on MDA-MB-231 cells.
The target is the same in experiment [8]. As to the kind of experiment: cell-based or functional assay. This is another data set of the same source.
Experiment [9] shares this target. Kind of experiment: flow cytometry on H358 cells.
A further experiment deals with T5, mouse TF ECD-His (mouse, UniProt P20352 29-251).
T5 construct: also called Mouse TF-His protein; mouse TF antigen protein
T5 sequence: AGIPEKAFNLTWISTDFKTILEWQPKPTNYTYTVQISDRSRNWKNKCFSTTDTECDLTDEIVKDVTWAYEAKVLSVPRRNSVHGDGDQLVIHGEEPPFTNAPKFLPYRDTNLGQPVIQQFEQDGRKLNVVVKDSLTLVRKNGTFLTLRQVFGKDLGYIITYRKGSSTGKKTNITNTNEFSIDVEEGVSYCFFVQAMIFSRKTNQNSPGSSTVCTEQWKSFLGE
Kind of experiment: ELISA, TF-His coated at 4 µg/mL, antibody titrated.

The next experiment concerns the target T6, rat TF ECD-His (rat, UniProt P42533 29-252).
T6 construct: also called rat TF-His protein; rat TF antigen protein
T6 sequence: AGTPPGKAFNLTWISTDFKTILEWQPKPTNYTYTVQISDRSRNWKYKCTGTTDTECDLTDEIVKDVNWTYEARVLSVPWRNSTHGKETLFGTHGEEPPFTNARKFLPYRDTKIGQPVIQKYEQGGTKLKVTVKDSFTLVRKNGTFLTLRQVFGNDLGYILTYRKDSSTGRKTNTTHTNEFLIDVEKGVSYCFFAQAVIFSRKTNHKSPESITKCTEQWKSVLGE
As to the kind of experiment: ELISA, TF-His coated at 4 µg/mL, antibody titrated.

Experiment [10] deals with T4, human tissue factor (TF) on MDA-MB-231, …. As to the kind of experiment: flow cytometry on HCT116 cells.

The record followed here is patent EP4703388A1 (Jiangsu Hengrui Pharmaceuticals Co., Ltd., dated 2024).

B1: hu67Y116 (antibody, human IgG1, kappa, V domains shown)
VH: EVQLQESGPGLVKPSQTLSLTCTVSGFSLTNYGVNWIRQSPGKGLEWIGVIWSRGNTDYNAAFKSRVTISKDTSKNQVSLKLSSVTAADTAVYYCARKDAIVATDALDYWGQGTTVTVSS
VL: DIQMTQSPSSLSASVGDRVTITCKASQDVQTAVAWYQQKPGKAPKLLIYSTHYRYTGVPSRFSGSGSGTDFTFTISSLQPEDIATYYCLQSYTLPFSFGGGTKVEIKR
As to B1, the EC50 in [1] stood at 53.4 nM; in experiment [4] it was 0.103 µg/mL; in [5] it was 0.0691 µg/mL; in experiment [7], 4.91 nM; in experiment [9], 5.42 nM; in experiment [10], 1.66 nM. The “Maximum (OD450 nm)” value in experiment [1] was 0.292 OD450 nm. Further, the Kd in [2] was determined as 39.4 nM; in [3], 27.1 nM. Moreover, the off-rate (koff) in experiment [2] was 0.00263 s⁻¹; in experiment [3], 0.000947 s⁻¹. Moreover, the on-rate constant (kon) in [2] was found to be 66700 M⁻¹ s⁻¹; in [3], 35000 M⁻¹ s⁻¹. Further, the Emax in experiment [4] stood at 0.89; in experiment [5] it was 1.17. For the same molecule, the “EC50 (nM), IL8 assay (IL-8 of MDA-MB-231 cells after antibody and FVIIa)” value in experiment [6] worked out at 1.57 nM. In addition, the “Inhibition rate (%), Factor-VII-Human Chromogenic-Activity blood coagulation pathway assay (FVIIa, MDA-MB-231 cells, FX; antibody 20 µg/mL)” value in experiment [8] is 4%. In addition, the binding result in the experiment with mouse TF ECD-His and with rat TF ECD-His was “no binding” throughout.
